Laboratory results reported in PMC5499601 (Nucleic Acids Research, 2017).
Changes are numbered by the printed parent chain. Read-outs that look alike come from different tables or passages of the source.

Key:
Assay in all cases: EMSA
BsSpo0J Q140R [1] = target: T1, BsSpo0J Q140R (UniProt P26497 1-282, Q140R)
T1 sequence: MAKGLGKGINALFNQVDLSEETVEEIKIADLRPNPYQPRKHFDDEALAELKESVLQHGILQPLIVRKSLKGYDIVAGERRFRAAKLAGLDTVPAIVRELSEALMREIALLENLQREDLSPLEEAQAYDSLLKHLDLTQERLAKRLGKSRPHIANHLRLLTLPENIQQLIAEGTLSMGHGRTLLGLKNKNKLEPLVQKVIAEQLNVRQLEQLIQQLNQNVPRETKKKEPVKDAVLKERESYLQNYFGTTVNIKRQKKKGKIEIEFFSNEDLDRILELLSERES

BsSpo0J V75A = target: T2, BsSpo0J V75A (UniProt P26497 1-282, V75A)
T2 sequence: T1 sequence with V75A, R140Q

BsSpo0J Q61R = target: T3, BsSpo0J Q61R (UniProt P26497 1-282, Q61R)
T3 sequence: T1 sequence with Q61R, R140Q

BsSpo0J R39A = target: T4, BsSpo0J R39A (UniProt P26497 1-282, R39A)
T4 sequence: T1 sequence with R39A, R140Q

BsSpo0J R105A = target: T5, BsSpo0J R105A (UniProt P26497 1-282, R105A)
T5 sequence: T1 sequence with R105A, R140Q

BsSpo0J R80A = target: T6, BsSpo0J R80A (UniProt P26497 1-282, R80A)
T6 sequence: T1 sequence with R80A, R140Q

BsSpo0J M104A = target: T7, BsSpo0J M104A (UniProt P26497 1-282, M104A)
T7 sequence: T1 sequence with M104A, R140Q

BsSpo0J H57E = target: T8, BsSpo0J H57E (UniProt P26497 1-282, H57E)
T8 sequence: T1 sequence with H57E, R140Q

BsSpo0J Q140R [2] = target: T1, BsSpo0J Q140R; remark: listed apart in the source
BsSpo0J E52R = target: T9, BsSpo0J E52R (UniProt P26497 1-282, E52R)
T9 sequence: T1 sequence with E52R, R140Q

Measured: binding result

B1: 39-bp parS (dsDNA)
DNA 1: CAGTTGAATCAGAATGTTCCACGTGAAACAAAGAAAAAA
DNA 2: TTTTTTCTTTGTTTCACGTGGAACATTCTGATTCAACTG
binds: BsSpo0J Q140R [1] | BsSpo0J V75A

B2: 24-bp parS (dsDNA)
DNA 1: AGAATGTTCCACGTGAAACAAAGA
DNA 2: TCTTTGTTTCACGTGGAACATTCT
not listed: BsSpo0J Q140R [1] | BsSpo0J V75A
binds: all other assays above
